Assay: soluble on expression in E. coli; label from the status in PepcDB or PDB records
With “TSTDAAGGDSYRVGINQLVQHPALDAATTGFKEAFEEAGVDVTFDEQNANGEQGTALTISQQFASDNLDLVLAVATPAAQATAQNITDIPVLFTAVTDAVSAELVDSNEAPGGNVTGTSDIAPIEQQLELLQQLVPDAKSIGIVYASGEVNSQVQVDEVTKAAEPLGLSVNTQTVTTVNEIQQAVEALGDVDVIYVPTDNMVVSGISSLVQVAEQKQIPVIGAESGTVEGGALATLGIDYTELGRQTGEMALRILQDGEDPATMPVETATEFTYVINEDAAERQGVEIPQEILDKAERV” the “soluble on expression in E. coli” value was “not soluble”. In the case of “HARKSLTVLVVGESARAENFGILGYGRNTTPNLNKENGLVAFTDVYSCGTETAVSVPCMFSNMGRKNYNATKARNQEGLLDVLKHAGIEVAWRDNQSGCKGTCDRVTFQDVSNLTDPLLCNSHECRDEILLQNLQGFIDSLDKDTVLVLHQMGSHGPEYYKRYPKEFEKFTPVCESNALNNCSRDSIVNAYDNTLLYTDHVLSTLIDLLRSNQAKVDTAMVYLSDHGESLGEYNLFLHGTPYVLAPDQQKHVPMLIWLSDTYQKSFAVTPDCLAKQRNAPLSQDNLFHSMLGLLKVDTKVYDPSLDMFAGCRSELAAADKQ”, the “soluble on expression in E. coli” value is reported as “not soluble”. With “MAHHHHHHMDATELKNKGNEEFSAGRYVEAVNYFSKAIQLDEQNSVLYSNRSACFAAMQKYKDALDDADKCISIKPNWAKGYVRRGAALHGMRRYDDAIAAYEKGLKVDPSNSGCAQGVKDVQVAKAREARDPIARVFTPEAFRKIQENPKLSLLMLQPDYVKMVDTVIRDPSQGRLYMEDQRFALTLMYLSGMKIPNDGDGEEEERPSAKAAETAKPKEEKPLTDNEKEALALKEEGNKLYLSKKFEEALTKYQEAQVKDPNNTLYILNVSAVYFEQGDYDKCIAECEHGIEHGRENHCDYTIIAKLMTRNALCLQRQRKYEAAIDLYKRALVEWRNPDTLKKLTECEKEHQKAVEEAYIDPEIAKQKKDEGNQYFKEDKFPEAVAAYTEAIKRNPAEHTSYSNRAAAYIKLGAFNDALKDAEKCIELKPDFVKGYARKGHAYFWTKQYNRALQAYDEGLKVDPSNADCKDGRYRTIMKIQEMASGQSADGDEAARRAMDDPEIAAIMQDSYMQLVLKEMQNDPTRIQEYMKDSGISSKINKLISAGIIRFGQ” the “soluble on expression in E. coli” value was “soluble”. With “MYKLSGKAVEDFRGIYDYTLGKFGDEQADRYTDSLGTFLDTLSQMPEIGQDYDAIPEVKKIAFRFHTVYYVIRVDDILIARILHQLMEPRRHW” the “soluble on expression in E. coli” value was “soluble”. With “MGSDKIHHHHHHMSPDVYLQIFETRRPQLLRLAYRMLGSHAEAEDVVQEAWIRWQAADQAQIAIPAAWLNRVVSRLCLDLMRSARHRRESYIGPWLPEPLIEEEDADHRPDNLTLSLMMALERLSPLERAAFLLHDVFGQSFDEVALALDRSPSAARQLAVRARAHVHIDRPRYKVEREAAEGLTRAFFEACKTGDAAVLSGLLAEDAVLHSDGGGKVYNLLNVIVGAQKLLRMFTSLSRKRGDEMEFVQFTLIDALPGYVWRMGDQIQTTALEVEDGRITRVYTTRNPDKLTRIRLN” the “soluble on expression in E. coli” value was “not soluble”. With “MSLNSLPKNIAIYTRVSTEKQDSNNSKANQLESIKQYINNQGWSDVPYEIYSDTQSASITSNSLNMYNDSDTMNPSIFLRDGLRRLIYDANYKKFDKLIVYSHDRLSRDIYEGLLIKHTLKKLNIDILYSKAGEQINSENQSINNFFENMLSNIAALESSIIGGRVLIGNRHNILNNIWAGGPAPYGYKLIALPSNRKKSKLSIYAPEARVVKKIFELYTTGYTPKDIVQFIKSEYSYNKDRLWTINSIKSILNNPVYTGTMVWNKKGGKRNPRKHPIDEYVYSKFDENIRIIDEKLWKKSLNIRKLQDENPKFLSEGHHHHHH” the “soluble on expression in E. coli” value was “soluble”. With “MAHHHHHHMSHYLLVTFTFNCPEIRILGPIKEQTIEKLNDVIPNATTTSRSNRTALPKFEYLPNPNHWYIKLDRQFCDEDGKSHLMVLLLDALSEEGSWRLVSSFVTKEPSGTGSKEGTETHTLFLNKLLAEDS” the “soluble on expression in E. coli” value was “soluble”. In the case of “NATTLPEALKLMQYIGDAIGTIRDPQELFRTVTDKLRLLFAFDSAVIITIDRERREASVFFEMLRFELPEQLRHQTRSIAGTWLEGHLDDRTVTVASIARDIPSFGADGAPLLWTLHELGMRQIVLSPLRSGGRVIGFLSFVSAEEKLWSDGDKSLLSGVSSSIAIAVSNALAYEELRQREAETSMQLAINNALFTI”, the “soluble on expression in E. coli” value is reported as “soluble”. For “MDQLREIVDPDQPQTLRQQAEGWGKMAELLREYSLLLDERLRLVEHSWTGEAATMYFDEVRRVQEYIEDSAERATANCGLWCVIATMAGIAKHDVSHIHQLWKDLDAATDAVGLGFVAGVFGADEALEDFQRKPFDAASRQIMEVTMSAADESYARMRDFEEFEPPPSVDDSGLELQSVSTPAPPSGTAVAPPSTTVTATPAVPLGPTAPRPVVPSVIGSRPGMMPMARPMMGPGHTVPPVIGQRDGGSAQPGATGRLIGRDGVVRVTPDVDLRDPNASRAHYGGDDVNRGVIKSQNPQRVADEAQFKLEEEVRRLRERAYAHRVETLTADHSQYAIPGIVGDDSAWDTKAHDPGPVAFDVRRLRHRPVVDDWTLAVRRH”, the “soluble on expression in E. coli” value was “not soluble”. For “MAHHHHHHMRIHHAFFRQSCRIMRGIDSARSTPTFVNGTDGMGTIHMLFSKRTHSNTTHSNADSAYMPGSNLHVEHPIVQLPARSLWCKQYPLDISLVRRGEFNDMIGRVRAARHYYQYPSLCAPKIGWNVQMFTLFDGTVFINPINLDALEVEEIAKQKSITFVEAEALWMEKKRREGKTCFAWEPCASCCFLLHFIERPSTVRVRAIAEDGNPFEVTLDKMRARMALHELDHLNGILFTRRIPDTSHVVPLEGFSTMSEWPDDYPSLEARSTFLYTTFTPPYTFITDSVEDAQLLDRKFEDGIYPGCEHDRRMRIESAAFEELQRAQWRMEKTREENSEEYDGVEGEVDEEDQEHCEETAAGGVAVKDNAPQ”, the “soluble on expression in E. coli” value was “not soluble”. In the case of “MQFYRRLTAIKAISFDLDDTLYNNRPIMQSVEQQMAHYFTEKFAILLPELLVEPKQVFNRRFWAPYRQQAIKAHQDISHDVVRLRFESYRLGLLAHNLSAEAARKEAQAGLDYFINLRSDFTVPKESHELLASLSKAFPLVSISNGNVDTRALGIDHYFQHIYHAGFQTGNCHDESEHLLKQKPETDMFSLVCQQLDILPEQLLHVGDCGFADIHGALNAGCQTAWLPQYGVGKSLQQIPHIELSLVSDLSQLIRKA”, the “soluble on expression in E. coli” value is reported as “not soluble”. In the case of “EGKTSSASPNNPQELKRRVIEEGFRRAGIEFGGLKGNSLEALRQFGDPMMATVVGLSLGFKGDVVLAGGTQMLAVAAILKGLGEDLSRFMIATTRWVVEDKSATFIKTAREIGIISYAADLDFSKSEFKGLRDYEKGYVKEGVGAGGATWLAV”, the “soluble on expression in E. coli” value is reported as “not soluble”. In the case of “MGSSHHHHHHGSLSKQIPLGIYEKALPAGECWLERLQLAKTLGFDFVEMSVDETDERLSRLDWSREQRLALVNAIVETGVRVPSMCLSAHRRFPLGSEDDAVRAQGLEIMRKAIQFAQDVGIRVIQLAGYDVYYQEANNETRRRFRDGLKESVEMASRAQVTLAMEIMDYPLMNSISKALGYAHYLNNPWFQLYPDIGNLSAWDNDVQMELQAGIGHIVAVHVKDTKPGVFKNVPFGEGVVDFERCFETLKQSGYCGPYLIEMWSETAEDPAAEVAKARDWVKARMAKAGMVEAA”, the “soluble on expression in E. coli” value is reported as “soluble”. For “MNFDVVIIGGGLAGLTCGIALQKQGKQCAIINNGQAAIDFSSGSMDLLSCLPSGQKVHVFCEAFSELSQQAPEHPYCLLGQHQVVAKVQQFEQFMQELGLVGSHKQNHLRVTPLGGLRHTWLSPKSVPVIAENEHFPYRQIAILGIEGYHDFQPQILVDNLKQNAAFSHCDFSIGYLNIPELDYLRQNAREFRSVNIAQLLEHKLAFEDLVQEIKQAAGNAQAVFLLACFGLDDQRFFDSLKQATALALFELPTLPPSLIGIRQYRTLRDQFEKLGGLLLNGDRAVRAEFDGDRVARIFTTLHQEESINAAHFVLASGSFFSNGLVAEFERVKEPIFDLDIIGNKAFINSERVSWTDKRFAAAQPYQSAGVAINHHCQVYKNGHLIPNLYAIGNVIGGFWGIEQGCASGVSVVTALTVAEWVGGTKLEHHHHHH”, the “soluble on expression in E. coli” value was “not soluble”. For “MGHHHHHHSHMVRKQSPYEDVQKQSRQHDPYKIIEPTPKKYLEGSAYEVIYNHLSYKHEILDKYIETNTAVFWIKKDDIFSVATILRHLGYECLSEMSAIDLCAKKGHFELFYQFVGFSDSCKNRRRVRVKCVLLPNESVDSLSFLYRSANWSEREAYDMLGIVFDKHPYLKRLIMPHDWVGHPLLRSYPLKGDEFAQWYEVDKIFGKEYREVVGKEQRDSARVDEKDTFNFAKIGYEQGKGEELKEVEEKHAFKKIPFVKDLHKIAPTILKKRL”, the “soluble on expression in E. coli” value was “soluble”. With “MGSDKIHHHHHHMNAVPQWRLAGDWFDICSCDIPCPCEFAQRPTGNHCQGVLAWHVREGQYGDVKLDGLTLVALGEFEGNLWAGEAKAVMGMYLDEKANESQREALQAIFGGHAGGWPAGFAANVGEMRGMEFVPITFEVAGDLATWRVEIPGLVVGRVEALSGPTTPPGKRVQTINPPGSEVGPGQVATWGRSVEVSTKGFGLDWIGTARSSKHIPFDWTGPS” the “soluble on expression in E. coli” value was “not soluble”. For “MWLGYMNKSIPTTRKTRTFKAMSIEFSAPAKMKIEVWSDIMCPFCYIGKKRLDDALSTFDQAGRIEVEYKSFELMPGLETHPLRSDVEYLADAKGMSLEQARQMNGQVQAMAQATGLEMNPDETIAANTINAHRLTHFAKAHGKQQEVAQELFKAHFVDGKNVDDLDVLVSIAAEVGLDASAAREALESDVYTNEVQQDVHEARQLGVQGVPFFVFDRKYAINGAQQEEVFTGTVEKAFEEWAAENPVSPFEVIDGQSCSVDGTCN”, the “soluble on expression in E. coli” value was “not soluble”. With “MSWQNQGMQALIPVINRVQDAFSQLGTSVSFELPQIAVVGGQSAGKSSVLENFVGKDFLPRGSGIVTRRPLILQLIQDRNEYAEFLHKKGHRFVDFDAVRKEIEDETDRVTGQNKGISPHPINLRVFSPNVLNLTLIDLPGLTKVPVGDQPADIEQQIRDMILTFINRETCLILAVTPANSDLATSDALKLAKEVDPQGLRTIGVLTKLDLMDEGTDAREILENKLFTLRRGYVGVVNRGQKDIVGRKDIRAALDAERKFFISHPSYRHMADRLGTSYLQHTLNQQLTNHIRDTLPTLRDSLQKKMFAMEKDVAEYKNYQPNDPGRKTKALLQMVTQFNADIERSIEGSSAKLVSTNELSGGARINRLFHERFPFEIVKMEIDEKEMRKEIQYAIRNIHGIRVGLFTPDMAFEAIAKKQITRLKEPSLKCVDLVVNELANVIRQCADTMARYPRLRDELERIVVSHMREREQIAKQQIGLIVDYELAYMNTNHEDFIGFSNAEAKASQGQSAKKNLGNQVIRKGWLSLSNVSFVRGSKDNWFVLMSDSLSWYKDDEEKEKKYMLPLDGVKLKDIEGGFMSRNHKFALFYPDGKNIYKDYKQLELGCTNLDEIDAWKASFLRAGVYPEKQKAQEDESQQEMEDTSIDPQLERQVETIRNLVDSYMRIITKTIKDLVPKAVMHLIVNQTGEFMKDELLAHLYQCGDTDALMEESQIEAQKREEMLRMYHACKEALRIISEVNMSTLGDQPPPLPMSDYRPHPSGPSPVPRPAPAPPGGRQAPMPPRGGPGAPPPPGMRPPPGAPGGGGGMYPPLIPTRVPTPSNGAPEIPARPQVPKRPF” the “soluble on expression in E. coli” value was “not soluble”. For “MKLLKDLLVDRKEFEDWKNNLTWARDGTLYLTTFPDISIGQPKYAKDINCNSKNLFHVKEFPLEFENKLDFELAQQNGLLNSQPVCYPRVCKPSPIDDWMAVLSNNGNVSVFKDNKMLTNLDSKGNLSSRTYHCFEWNPIESSIVVGNEDGELQFFSIRKNSENTPEFYFESSIRLSDAGSKDWVTHIVWYEDVLVAALSNNSVFSMTVSASSHQPVSRMIQNASRRKITDLKIVDYKVVLTCPGYVHKIDLKNYSISSLKTGSLENFHIIPLNHEKESTILLMSNKTSYKVLLEDELHVTADNIIAPYLEKKFKKWSTIWNEFNNYETTLVIHGISLSPDGYSIAIVYDMERVAFKYKIASEQSFNIMFAPLYHTWTISERAVGLAWYQTYQIYNQSLPKLPENFSMNKKLLNGNYPISLDFQSYLNALMKSEEMRIIMFLNMTIDKPSILSFLEALYEYAINKKSELTNSFDLACVLSIAAILKREAPIYNGTLLMKNSFLEETFNLESFTADPETVTSTTNNTWKRCGVTLLPILTTHVKICPVSKQRVIDIKRDDLNDYGWFTRGLLERFNEISVYCGTTLEVM”, the “soluble on expression in E. coli” value was “soluble”.

Reference: the DeepSol protein solubility set
